From US20260115332A1, “Fibroblast Activation Protein Alpha-Cleavable Pro-Peptides and Methods of Use” (The Regents of the University of California, priority 2022, published 2026)
Where no end group is shown, it is not given here.

Key:
recombinant human FAPα [1] = target: T1, recombinant human FAPα (Homo sapiens, UniProt Q12884); assay: Multiplex substrate profiling by mass spectrometry (MSP-MS); type: biochemical; details: for # of cleavages on MSP-MS: human FAP alpha; for # of cleavages on MS: top P4-P4′ peptides cleaved by human FAP alpha
T1 sequence (Q12884 26-760 limits assumed): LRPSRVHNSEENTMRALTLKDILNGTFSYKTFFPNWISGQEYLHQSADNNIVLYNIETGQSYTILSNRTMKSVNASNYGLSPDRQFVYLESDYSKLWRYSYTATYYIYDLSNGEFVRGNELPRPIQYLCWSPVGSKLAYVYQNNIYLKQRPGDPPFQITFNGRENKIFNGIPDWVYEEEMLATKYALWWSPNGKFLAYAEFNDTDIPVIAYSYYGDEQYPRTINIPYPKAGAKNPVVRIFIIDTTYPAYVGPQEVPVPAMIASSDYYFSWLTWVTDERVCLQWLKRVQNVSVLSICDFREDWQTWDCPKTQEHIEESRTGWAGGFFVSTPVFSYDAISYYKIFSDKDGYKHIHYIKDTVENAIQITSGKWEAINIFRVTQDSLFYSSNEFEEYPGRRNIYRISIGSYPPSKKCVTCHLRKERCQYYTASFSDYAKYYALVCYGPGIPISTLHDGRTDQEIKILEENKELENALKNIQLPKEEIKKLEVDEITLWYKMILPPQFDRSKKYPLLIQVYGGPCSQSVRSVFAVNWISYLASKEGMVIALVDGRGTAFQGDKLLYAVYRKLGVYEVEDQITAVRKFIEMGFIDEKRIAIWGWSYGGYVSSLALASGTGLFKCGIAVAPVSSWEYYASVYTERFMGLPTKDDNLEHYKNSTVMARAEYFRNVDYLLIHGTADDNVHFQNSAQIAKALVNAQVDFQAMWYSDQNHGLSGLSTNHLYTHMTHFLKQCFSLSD
Procedure: Although much is known about the substrate preferences for FAPα from P4-P1, an optimal P4-P4′ substrate sequence for FAPα has never been defined. In this example, multiplex substrate profiling by mass spectrometry (MSP-MS) was performed to identify candidate FAPα P4-P4′ substrate sequences for potential inclusion in a FAPα targeted restricted interaction peptide (or “FRIP”).
Shown on the top of FIG. 3 is an Icelogo representing the cumulative amino acid preferences for recombinant human FAPα. Shown on the bottom of FIG. 3 is a heat map summarizing the amino acids that were most frequently incorporated at each site in the cleavage products. Lighter indicates an enriched amino acid. X=no preferred amino acid.
A list of the top P4-P4′ peptides cleaved by human FAP alpha as determined using the MSP-MS substrate profiling technology are shown in the following table, where X indicates an undefined amino acid site.

recombinant human FAPα [2] = target: T1, recombinant human FAPα; assay: Kinetics of FRET donor/acceptor 8 mer substrates under Michaelis-Menten conditions; type: biochemical; details: FRET donor/acceptor substrate adducts, human recombinant FAP alpha
Procedure: Three top hits, […] (SEQ ID NO:38), […] (SEQ ID NO:40), and […] (SEQ ID NO:42), were selected for further analysis. An 8 mer peptide bearing FRET donor-acceptor dyes on the N and C terminus was synthesized and evaluated as a substrate for recombinant human FAPα (RND Systems) under Michaelis-Menten conditions.
A table summarizing the kinetic properties of three of the top P4-P4′ 8 mer peptides emerging from the MSP-MS assay is provided below, where the kinetic properties were determined using FRET donor/acceptor substrate adducts and human recombinant FAP alpha.

With “HYGPTVNK (also: FRET labels) [tested as 8 mer FRET peptide]” the “# of cleavages on MSP-MS” value (recombinant human FAPα [1]) was 28, the “# of cleavages on MS” value (recombinant human FAPα [1]) was 28 and the Km (recombinant human FAPα [2]) was 2700 nM. For the same compound, the kcat (recombinant human FAPα [2]) was 0.04031 s⁻¹.
With XXMPEEVA the “# of cleavages on MS” value (recombinant human FAPα [1]) was 17.
For XXGSQVFS, the “# of cleavages on MS” value (recombinant human FAPα [1]) was 21.
With XXWPMGMY the “# of cleavages on MS” value (recombinant human FAPα [1]) was 26.
For XSGPDYQK, the “# of cleavages on MS” value (recombinant human FAPα [1]) was 14.
With XXHPTKSF the “# of cleavages on MS” value (recombinant human FAPα [1]) was 16.
With XXFPNMWS the “# of cleavages on MS” value (recombinant human FAPα [1]) was 23.
For GMGPFHIV, the “# of cleavages on MS” value (recombinant human FAPα [1]) was 12.
For “HQGPFWML (also: FRET labels) [tested as 8 mer FRET peptide]”, the “# of cleavages on MSP-MS” value (recombinant human FAPα [1]) was 30, the “# of cleavages on MS” value (recombinant human FAPα [1]) was 30 and the Km (recombinant human FAPα [2]) was 1340 nM. The kcat (recombinant human FAPα [2]) was 0.1041 s⁻¹.
With “HIGPTAAY (also: FRET fluorophore/quencher labels) [tested as 8 mer FRET peptide]” the “# of cleavages on MSP-MS” value (recombinant human FAPα [1]) was 43, the “# of cleavages on MS” value (recombinant human FAPα [1]) was 43 and the Km (recombinant human FAPα [2]) was 2450 nM. The kcat (recombinant human FAPα [2]) was 0.2986 s⁻¹.
For XXGPKLTY, the “# of cleavages on MS” value (recombinant human FAPα [1]) was 28.
With XXIPTNIR the “# of cleavages on MS” value (recombinant human FAPα [1]) was 41.
In the case of XXIARQPW, the “# of cleavages on MS” value (recombinant human FAPα [1]) is reported as 14.
Work on CN(CCCN1CCN(C(=O)CN2CCN(CC(=O)O)CCN(CC(=O)O)CCN(CC(=O)O)CC2)CC1)c1ccc2nccc(C(=O)NCC(=O)N3CC(F)(F)C[C@H]3C#N)c2c1 [FAPI 46] yielded a Tumor dose (Tumor dose per isotope; Ac-225) of 720 Gy/mCi, a Tumor dose (Tumor dose per isotope; Cu-64) of 2 Gy/mCi and a Tumor dose (Tumor dose per isotope; Cu-67) of 11 Gy/mCi. For the same compound, the Tumor dose (Tumor dose per isotope; Lu-177) was 16 Gy/mCi and the Tumor dose (Tumor dose per isotope; Y-90) was 42 Gy/mCi.
With YHGPLAHX the “# of cleavages on MS” value (recombinant human FAPα [1]) was 98.
